One data set has as its target E. coli Hfq (Escherichia coli, UniProt P0A6X3 1-102). The data set can be described thus: fluorescence anisotropy.
A further data set concerns the target S. aureus Hfq (Staphylococcus aureus, UniProt A0A0H3JV59 1-77). The data set can be described thus: fluorescence anisotropy.

B1: Cy3-mini-sRNA (structured_RNA)
RNA: GUGGUCAGUCGAGUGGCUUCCGUCCAUUUCGGACGUUUUUU
Take B1: the Kd with E. coli Hfq came out at 0.0027 ± 0.0008 µM; with S. aureus Hfq, 0.1 µM.

The values are drawn from paper PMC4884477.
